Measured values reported in US8551493B2, “Peptide with reduced dimer formation” (Circassia Limited, priority 2007, dated 2013).
Where no end group is shown, it is not given here. [ ]: non-standard residue; d: D form. Abu = CC[C@H](N)C(=O)O

Columns and labels:
[1] = Dimer formation of individual peptides and binary peptide mixtures, RP-HPLC; type: physicochemical
Procedure: The peptides used in this study have a minimum purity of >90%. The effectiveness of each additive to reduce dimer formation was assessed by size exclusion chromatography (SEC) and RP-HPLC. In SEC, molecules are separated based upon their apparent molecular weight. Smaller molecules can distribute into a greater proportion of the column matrix and are retained for longer than analytes of higher molecular weight. Dimers will elute from the column with an apparent molecular weight approximately twice that of the corresponding monomers. Separation by RP-HPLC separates species based on differences in their hydrophobicities. The amount of dimer formed is determined as a percentage of the total peak area ratio (% PAR) for the chromatogram.
Following the generation of data from the preliminary screening a further piece of work was undertaken to evaluate the ability of matrices containing Cysteine hydrochloride and 1-thioglycerol to inhibit the propensity of individual cysteine containing peptides and mixed pairs of these peptides to dimerize compared to the matrix alone. For each excipient mixtures of all the possible binary peptide combinations were prepared. […] The amount of dimer formed is determined as a percentage of the total peak area ratio (% PAR) for the chromatogram in each case.

PBMCs [2] = test: IFN-gamma production by PBMCs from ragweed allergic individuals (FIG. 2); type: cell-based, human; conditions: PBMCs from a population of ragweed allergic individuals
Procedure: Using methods equivalent to those in Example 2, these peptides were tested for the ability to induce cytokine production in PBMCs taken from a population of ragweed allergic individuals.

PBMCs [3] = test: IL-10 cytokine release assay on PBMCs from seven ragweed allergic individuals; type: cell-based, human; conditions: for IL-10: ragweed allergic, PBMC supernatant
Excerpt: The following Table presents results from a cytokine release assay performed on PBMCs taken from seven ragweed allergic individuals (A-G).

PBMCs [4] = test: Cytokine release assay (IFN-γ, IL-13) on PBMCs from house dust mite allergic individuals; type: cell-based, human; conditions: number of responders, N = 55 house dust mite allergic individuals; positive = at least 100 pg/ml of cytokine
Excerpt: The following Table presents results from a cytokine release assay performed on PBMCs taken from a population of house dust mite allergic individuals (N=number of individuals in population). A positive response is considered to be production of at least 100 pg/ml of cytokine.

PBMCs [5] = test: IL10 production assay in house dust mite allergic individuals (FIG. 1); type: cell-based, human; conditions: population of 34 house dust mite allergic individuals
Procedure: A typical cytokine release assay requires 40×10^6 PBMC's per subject. In more detail, 250 μl of a 200 μg/ml solution of the appropriate antigen or peptide concentration is distributed into the appropriate wells of 48 well plates. Plates are the incubated in a humidified 5% CO2 incubator at 37° C. for a maximum of 4 hours. 250 μl of a 5×10^6 cell/ml PBMC suspension is then added to each well and the plates returned to the incubator for 5 days. Following stimulation, samples of culture supernatant are harvested for testing by ELISA or multiplex bead assay according to standard protocols.

[6] = T = 1 week, 25° C./60% RH, Control matrix, individual peptide sample
[7] = T = 1 week, 25° C./60% RH, Control matrix, mixed sample MLA01 and MLA04
[8] = T = 1 week, 25° C./60% RH, Control matrix, mixed sample MLA04 and MLA05
[9] = T = 1 week, 25° C./60% RH, Control matrix, mixed sample MLA04 and MLA12
[10] = T = 72 h, Control matrix, individual peptide sample
[11] = T = 72 h, Control matrix, mixed sample MLA01 and MLA04
[12] = T = 72 h, Control matrix, mixed sample MLA04 and MLA05
[13] = T = 72 h, Control matrix, mixed sample MLA04 and MLA12
[14] = T = 0, Control matrix, individual peptide sample
[15] = T = 0, Control matrix, mixed sample MLA01 and MLA05
[16] = T = 1 week, 25° C./60% RH, Control matrix, mixed sample MLA01 and MLA05
[17] = T = 1 week, 25° C./60% RH, Control matrix, mixed sample MLA01 and MLA12
[18] = T = 1 week, 25° C./60% RH, Cysteine matrix, mixed sample MLA01 and MLA12
[19] = T = 72 h, Control matrix, mixed sample MLA01 and MLA05
[20] = T = 72 h, Control matrix, mixed sample MLA01 and MLA12
[21] = T = 1 week, 25° C./60% RH, Control matrix, mixed sample MLA05 and MLA12
[22] = T = 72 h, Control matrix, mixed sample MLA05 and MLA12

With “KALPVVLENARILKNCV (listed as Felis catus) [MLA04, derived from cat allergen Fel d1]” the “Percentage peak area ratio (% PAR), dimers formed” value (shortened to “Percentage peak area ratio (% PAR)”) [1, 6] was 4.76 % PAR, the “Percentage peak area ratio (% PAR)” value [1, 7] was 2.71 % PAR and the “Percentage peak area ratio (% PAR)” value [1, 8] was 2.32 % PAR. For the same substance, the “Percentage peak area ratio (% PAR)” value [1, 9] was 2.42 % PAR, the “Percentage peak area ratio (% PAR)” value [1, 10] was 2.51 % PAR and the “Percentage peak area ratio (% PAR)” value [1, 11] was 1.32 % PAR. The “Percentage peak area ratio (% PAR)” value [1, 12] was 0.91 % PAR and the “Percentage peak area ratio (% PAR)” value [1, 13] was 0.44 % PAR.

With “CPAVKRDVDLFLT (listed as Felis catus) [MLA01, derived from cat allergen Fel d1]” the “Percentage peak area ratio (% PAR)” value [1, 14] was 3.85 % PAR, the “Percentage peak area ratio (% PAR)” value ([1]; T = 0, Control matrix, mixed sample MLA01 and MLA04) was 2.92 % PAR and the “Percentage peak area ratio (% PAR)” value [1, 15] was 2.73 % PAR. The “Percentage peak area ratio (% PAR)” value ([1]; T = 0, Control matrix, mixed sample MLA01 and MLA12) was 2.7 % PAR, the “Percentage peak area ratio (% PAR)” value ([1]; T = 0, Cysteine matrix, individual peptide sample) was 0.49 % PAR and the “Percentage peak area ratio (% PAR)” value ([1]; T = 0, Cysteine matrix, mixed sample MLA01 and MLA04) was 0.48 % PAR. For the same substance, the “Percentage peak area ratio (% PAR)” value ([1]; T = 0, Cysteine matrix, mixed sample MLA01 and MLA05) was 0.73 % PAR, the “Percentage peak area ratio (% PAR)” value ([1]; T = 0, Cysteine matrix, mixed sample MLA01 and MLA12) was 0.2 % PAR and the “Percentage peak area ratio (% PAR)” value [1, 6] was 66.81 % PAR. The “Percentage peak area ratio (% PAR)” value [1, 7] was 39.49 % PAR, the “Percentage peak area ratio (% PAR)” value [1, 16] was 45.59 % PAR and the “Percentage peak area ratio (% PAR)” value [1, 17] was 40.03 % PAR. For the same substance, the “Percentage peak area ratio (% PAR)” value ([1]; T = 1 week, 25° C./60% RH, Cysteine matrix, mixed sample MLA01 and MLA04) was 0.52 % PAR, the “Percentage peak area ratio (% PAR)” value ([1]; T = 1 week, 25° C./60% RH, Cysteine matrix, mixed sample MLA01 and MLA05) was 0.26 % PAR and the “Percentage peak area ratio (% PAR)” value [1, 18] was 0.23 % PAR. For the same substance, the “Percentage peak area ratio (% PAR)” value [1, 10] was 43.81 % PAR, the “Percentage peak area ratio (% PAR)” value [1, 11] was 35.47 % PAR and the “Percentage peak area ratio (% PAR)” value [1, 19] was 41.11 % PAR. The “Percentage peak area ratio (% PAR)” value [1, 20] was 29.62 % PAR.

In the case of “RGW02: engineered (modified) peptide derived from ragweed pollen major allergen Amb a 1 (GSSQIWIDHSSLSKS; RGW02* synthetic peptide)”, the “IFN-gamma production compared with the non-engineered peptide” value (PBMCs [2]) is reported as “does not induce significantly different responses”, the “IL-10” value (PBMCs [3]; Subject A) is reported as 248.91 pg/mL and the “IL-10” value (PBMCs [3]; Subject B) is reported as 227.18 pg/mL. For the same substance, the “IL-10” value (PBMCs [3]; Subject C) was 452.45 pg/mL, the “IL-10” value (PBMCs [3]; Subject D) was 80.54 pg/mL and the “IL-10” value (PBMCs [3]; Subject E) was 310.34 pg/mL. The “IL-10” value (PBMCs [3]; Subject F) was 203.12 pg/mL, the “IL-10” value (PBMCs [3]; Subject G) was 283.75 pg/mL and the “level of production of IL-10 compared with the original peptide (RGW02A)” value (PBMCs [3]; seven ragweed allergic individuals (A-G)) was “not significantly different”.

With NYSQIYPPNVNKIREA [HDM101A] the “Responders with IFN-g >100” value (PBMCs [4]) was 4 and the “Responders with IL-13 >100” value (PBMCs [4]) was 4.

In the case of RFGISNYSQIYPPNVNK [HDM100A], the “Responders with IFN-g >100” value (PBMCs [4]) is reported as 10 and the “Responders with IL-13 >100” value (PBMCs [4]) is reported as 8.

With NAQRFGISNYSQI [HDM102A] the “Responders with IFN-g >100” value (PBMCs [4]) was 14 and the “Responders with IL-13 >100” value (PBMCs [4]) was 16.

In the case of “RILKNCVDAKMTEEDKE (listed as Felis catus) [MLA05, derived from cat allergen Fel d1]”, the “Percentage peak area ratio (% PAR)” value [1, 14] is reported as 0.55 % PAR, the “Percentage peak area ratio (% PAR)” value [1, 15] is reported as 0.35 % PAR and the “Percentage peak area ratio (% PAR)” value [1, 6] is reported as 1.65 % PAR. For the same substance, the “Percentage peak area ratio (% PAR)” value [1, 16] was 3.18 % PAR, the “Percentage peak area ratio (% PAR)” value [1, 8] was 3.26 % PAR and the “Percentage peak area ratio (% PAR)” value [1, 21] was 1.85 % PAR. The “Percentage peak area ratio (% PAR)” value ([1]; T = 1 week, 25° C./60% RH, Cysteine matrix, individual peptide sample) was 0.21 % PAR, the “Percentage peak area ratio (% PAR)” value [1, 10] was 1.99 % PAR and the “Percentage peak area ratio (% PAR)” value [1, 19] was 2.21 % PAR. The “Percentage peak area ratio (% PAR)” value [1, 12] was 2.25 % PAR and the “Percentage peak area ratio (% PAR)” value [1, 22] was 8.17 % PAR.

In the case of “HDM203B: house dust mite Der p1 derived peptide of the HDM203 family tested for IL10 production (DLRQMRTVTPIRMQGGSGS; HDM203B* synthetic peptide)”, the “IL10 production, engineered versus non-engineered peptides” value (PBMCs [5]) is reported as “not significantly different”.

In the case of RFGISNYCQIYPPNVNK [HDM100], the “Responders with IFN-g >100” value (PBMCs [4]) is reported as 6 and the “Responders with IL-13 >100” value (PBMCs [4]) is reported as 6.

For NAQRFGISNYCQI [HDM102], the “Responders with IFN-g >100” value (PBMCs [4]) was 16 and the “Responders with IL-13 >100” value (PBMCs [4]) was 13.

In the case of “RFGISNYBQIYPPNVNK (RFGISNY[Abu]QIYPPNVNK) [HDM100B, B=2-aminobutyric acid]”, the “Responders with IFN-g >100” value (PBMCs [4]) is reported as 6 and the “Responders with IL-13 >100” value (PBMCs [4]) is reported as 10.

In the case of NYCQIYPPNVNKIREA [HDM101], the “Responders with IFN-g >100” value (PBMCs [4]) is reported as 2 and the “Responders with IL-13 >100” value (PBMCs [4]) is reported as 1.

In the case of “NAQRFGISNYBQI (NAQRFGISNY[Abu]QI) [HDM102B, B=2-aminobutyric acid]”, the “Responders with IFN-g >100” value (PBMCs [4]) is reported as 15 and the “Responders with IL-13 >100” value (PBMCs [4]) is reported as 17.

With “NYBQIYPPNVNKIREA (NY[Abu]QIYPPNVNKIREA) [HDM101B, B=2-aminobutyric acid]” the “Responders with IFN-g >100” value (PBMCs [4]) was 1 and the “Responders with IL-13 >100” value (PBMCs [4]) was 2.

For “TAMKKIQDCYVENGLI (listed as Felis catus) [MLA12, derived from cat allergen Fel d1]”, the “Percentage peak area ratio (% PAR)” value [1, 6] was 1.72 % PAR, the “Percentage peak area ratio (% PAR)” value [1, 17] was 3.43 % PAR and the “Percentage peak area ratio (% PAR)” value [1, 9] was 2.13 % PAR. The “Percentage peak area ratio (% PAR)” value [1, 21] was 1.28 % PAR, the “Percentage peak area ratio (% PAR)” value [1, 18] was 0.18 % PAR and the “Percentage peak area ratio (% PAR)” value ([1]; T = 1 week, 25° C./60% RH, Cysteine matrix, mixed sample MLA04 and MLA12) was 0.32 % PAR. For the same substance, the “Percentage peak area ratio (% PAR)” value [1, 10] was 0.46 % PAR, the “Percentage peak area ratio (% PAR)” value [1, 20] was 2.09 % PAR and the “Percentage peak area ratio (% PAR)” value [1, 13] was 1.1 % PAR. The “Percentage peak area ratio (% PAR)” value [1, 22] was 9.78 % PAR, the “Percentage peak area ratio (% PAR)” value ([1]; T = 72 h, Cysteine matrix, mixed sample MLA01 and MLA12) was 0.1 % PAR and the “Percentage peak area ratio (% PAR)” value ([1]; T = 72 h, Cysteine matrix, mixed sample MLA04 and MLA12) was 0.33 % PAR.
